T1: PBX1-DBD (UniProt P40424 233-295)
T1 sequence: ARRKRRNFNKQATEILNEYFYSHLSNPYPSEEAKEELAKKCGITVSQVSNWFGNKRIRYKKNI

T2: PBX1 (recombinant, Origene) (UniProt P40424 1-430)
T2 sequence: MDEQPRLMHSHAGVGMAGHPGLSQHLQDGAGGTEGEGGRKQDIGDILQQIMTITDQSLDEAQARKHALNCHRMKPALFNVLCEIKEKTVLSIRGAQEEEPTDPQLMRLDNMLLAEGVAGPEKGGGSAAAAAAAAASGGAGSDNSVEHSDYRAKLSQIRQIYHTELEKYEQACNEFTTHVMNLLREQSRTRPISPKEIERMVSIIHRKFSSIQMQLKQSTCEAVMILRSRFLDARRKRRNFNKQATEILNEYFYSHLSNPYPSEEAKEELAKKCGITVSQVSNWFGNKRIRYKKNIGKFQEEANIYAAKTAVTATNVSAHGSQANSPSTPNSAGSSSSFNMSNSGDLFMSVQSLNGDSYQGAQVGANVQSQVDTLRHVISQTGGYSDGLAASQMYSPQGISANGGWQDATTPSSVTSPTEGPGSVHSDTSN


Columns and labels:
PBX1-DBD = molecular target: T1, PBX1-DBD; test: SPR
[1] = molecular target: T2, PBX1 (recombinant, Origene); test: EMSA

Binder	Kd (PBX1-DBD) [nM]	binding result [1]
PBX1 Probe (PBX1-CS-DNA-Biotin) (dsDNA) DNA 1: CGAAATTGATTGATGCTTTAATTGAC DNA 2: GTCAATTAAAGCATCAATCAATTTCG	0.8	–
PBX-MEIS Probe (dsDNA) DNA 1: CTGCGTTGATTGACAGCCGC DNA 2: GCGGCTGTCAATCAACGCAG	–	binds
